Experimental data: US10597649B2, “Tau protease compositions and methods of use” (Oligomerix, Inc., priority 2011, dated 2020)

What was measured:
Tau 4R2N = target: T1, Tau 4R2N (Homo sapiens, UniProt P10636); assay: Autoproteolytic activity of purified tau monomer, dimer and trimer (SDS-PAGE); assay type: biochemical
T1 construct: Stabilization buffer enables production of full length monomer, dimer and trimer for tau protease; made in house; host or cells: E. coli BL21 (DE3) Gold
Procedure: This example describes the identification of the autoproteolytic activity of tau oligomers.
Purified recombinant human tau 4R2N was prepared as described in the flow chart. Monomer, dimer and trimer species were purified preparative electrophoresis from a tau 4R2N preparation that had formed oligomers. The electrophoresis buffer contained 0.1% SDS which inhibited the proteolytic activity. Fractions containing the tau species were buffer exchanged into 25 mM Tris-HCl pH 7.4 using and Amicon ultrafiltration device (Merck Millipore, Billerica, Mass.), which led to restoration of tau autoproteolytic activity. Protein concentrations of the preparations were determined using the BCA kit (ThemoFisher Scientific). Samples were run on a pre-cast 4-20% polyacrylamide Tris-HCl gel (BioRad, Hercules, Calif.) without using reductant in order to visualize the disulfide mediated oligomers. The gel was stained with GelCodeBlue Safe (ThermoFisher Scientific, Rockford, Ill.). Lane 1: 5.2 μg of tau 4R2N oligomer standard; Lane 2: 2 microliter of monomer fraction before buffer exchange; Lane 3: 0.5 μg monomer after buffer exchange; Lane 4: […] of dimer fraction before buffer exchange; Lane 5: 0.5 μg dimer after buffer exchange; Lane 6: 20 μL trimer fraction before buffer exchange; Lane 7: 0.5 μg trimer after buffer exchange.
Tau 4R2N undergoes autoproteolytic cleavage (self-cleavage) when it forms disulfide-mediated oligomers upon incubation. Tau autoproteolyic activity co-purified with the dimer and trimer species. The amount of autoproteolytic activity was greatest with trimer which fragmented to the extent where no full size trimer remained after incubation. […] It was also shown that Tau autoproteolytic activity co-purified with dimer and trimer species. […] Full-length trimer digested completely into smaller fragments, and upon incubation, monomer formed an oligomeric ladder that produced a low level of autoproteolytic activity.
(§1) Monomer, Dimer, and Trimer of Tau 441 were purified under non-reducing conditions using continuous-elution electrophoresis. Fractions of each oligomer sample were pooled and buffer exchanged into stabilization buffer using an Amicon spin concentrator with a molecular weight cut-off of 30,000 daltons. 0.35 μg of each sample was incubated overnight at 37° C. while non-incubated control was kept on ice at 4° C. Next day, 2×SDS sample buffer without reductant was added to each sample and loaded onto a 4-20% gradient Tris-HCl Criterion Gel (Bio-Rad, Hercules, Calif.).
as §1, with “This example presents results from a contamination control study of tau protease. Monomer,” for “Monomer,”, “2× sodium dodecyl sulfate” for “2×SDS”
Lane 1—tau oligomer ladder standard; Lane 2—empty; Lane 3—purified monomer no incubation (fraction from purification plate); Lane 4—purified monomer without incubation; Lane 5—purified monomer with incubation; Lane 6—purified dimer without incubation; Lane 7—purified dimer with incubation; Lane 8—purified trimer without incubation; purified trimer with incubation overnight at 37° C. Lanes 3-9 were treated with sample buffer containing β-mercaptoethanol (BME).

[1] = system: Tau 4R1N oligomer mixture; assay: Cleavage of tau 4R1N by tau 4R2N trimer (SDS-PAGE); assay type: biochemical; settings: overnight at 37° C.
Procedure: Tau oligomer formation leads to gain of toxic function and loss of function of tau monomer degraded by tau 4R2N trimer activity. Lane 1: Tau 4R2N monomer (0.1 μg); Lane 2: 1× Sample Buffer without reductant; Lane 3: 4R2N Trimer, no 4R1N; Lane 4:Tau 4R1N, no tau 4R2N trimer; Lane 5: Tau 4R2N trimer:tau 4R1N, 1:10; Lane 6: Tau 4R2N trimer:tau 4R1N trimer, 1:100; Lane 7: Tau 4R2N trimer:tau 4R1N 1:10. […] The arrows indicate fragments of tau 4R1N that are generated from tau 4R2N trimer protease activity. For the upper arrow, the fragments have the same apparent MW between the two isoforms, the lower arrow fragments differ with the fragment from tau 4R1N migrating faster than the fragment from tau 4R2N;

T1 sequence (P10636 1-441 isoform P10636-8): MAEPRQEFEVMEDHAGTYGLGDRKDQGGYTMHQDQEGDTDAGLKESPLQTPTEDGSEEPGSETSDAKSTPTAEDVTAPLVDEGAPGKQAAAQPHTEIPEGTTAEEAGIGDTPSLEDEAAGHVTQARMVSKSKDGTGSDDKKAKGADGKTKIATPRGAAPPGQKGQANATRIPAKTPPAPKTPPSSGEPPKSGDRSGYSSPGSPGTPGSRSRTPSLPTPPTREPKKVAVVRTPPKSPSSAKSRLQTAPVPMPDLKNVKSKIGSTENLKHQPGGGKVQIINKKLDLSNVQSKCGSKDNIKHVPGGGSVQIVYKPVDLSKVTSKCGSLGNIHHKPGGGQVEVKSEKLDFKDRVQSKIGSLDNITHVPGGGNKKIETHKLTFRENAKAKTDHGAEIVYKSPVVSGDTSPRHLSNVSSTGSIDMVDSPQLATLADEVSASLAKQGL

With “tau 4R2N trimer: purified disulfide-mediated trimer species of recombinant human tau 4R2N” the “degradation in contamination control study (Example 3)” value (Tau 4R2N; 0.35 μg, overnight at 37° C., equal sample volumes from purification) was “preferentially degraded”, the “autoproteolytic activity (Example 1)” value (Tau 4R2N; after buffer exchange into 25 mM Tris-HCl pH 7.4, incubation at 37° C.) was “greatest” and the “cutting of tau 4R1N” value [1] was “cuts tau (4R1N) monomer and tau dimer”.
